Read-outs that look alike come from different tables or passages of the source.
Legend:
rhesus TNFα [1] = molecular target: T1, rhesus TNFα (rhesus, UniProt P48094 77-233); assay: cell-based or functional assay
human TNFα [2] = molecular target: T2, human TNFα (human, UniProt P01375 77-233); assay: cell-based or functional assay
human TNFα [3] = molecular target: T2, human TNFα; assay: competition ELISA, biotinylated human TNFα pre-incubated with nanobody, binding to coated Enbrel; 50% inhibition
human TNFα [4] = molecular target: T2, human TNFα; assay: cell-based or functional assay; remark: listed apart in the source
Protein A = Protein A (UniProt P38507 37-477)
human serum albumin = molecular target: T3, human serum albumin (human, UniProt P02768 25-609)
T3 construct: On the Biacore chip; also called human albumin

mouse serum albumin [5] = molecular target: T4, mouse serum albumin (mouse, UniProt P07724 25-608)
T4 construct: On the Biacore chip; also called mouse albumin
T4 sequence (P07724 25-608 limits assumed): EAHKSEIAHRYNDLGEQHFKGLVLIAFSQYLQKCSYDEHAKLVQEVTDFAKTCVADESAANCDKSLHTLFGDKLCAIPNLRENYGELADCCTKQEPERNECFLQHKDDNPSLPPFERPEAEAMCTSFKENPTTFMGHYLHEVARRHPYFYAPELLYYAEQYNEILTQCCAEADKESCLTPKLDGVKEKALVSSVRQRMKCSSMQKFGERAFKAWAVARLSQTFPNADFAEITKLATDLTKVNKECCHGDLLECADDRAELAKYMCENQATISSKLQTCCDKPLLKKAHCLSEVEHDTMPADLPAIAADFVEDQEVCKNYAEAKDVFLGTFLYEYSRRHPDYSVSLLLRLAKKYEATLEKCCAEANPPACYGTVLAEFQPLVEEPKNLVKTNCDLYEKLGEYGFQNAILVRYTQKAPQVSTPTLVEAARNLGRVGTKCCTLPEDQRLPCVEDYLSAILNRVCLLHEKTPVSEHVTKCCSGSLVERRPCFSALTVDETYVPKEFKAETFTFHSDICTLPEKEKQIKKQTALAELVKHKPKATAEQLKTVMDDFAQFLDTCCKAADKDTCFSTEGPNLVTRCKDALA

rhesus serum albumin = molecular target: T5, rhesus serum albumin (rhesus, UniProt Q28522 17-600)
T5 construct: On the Biacore chip; also called rhesus albumin
T5 sequence (Q28522 17-600 limits assumed): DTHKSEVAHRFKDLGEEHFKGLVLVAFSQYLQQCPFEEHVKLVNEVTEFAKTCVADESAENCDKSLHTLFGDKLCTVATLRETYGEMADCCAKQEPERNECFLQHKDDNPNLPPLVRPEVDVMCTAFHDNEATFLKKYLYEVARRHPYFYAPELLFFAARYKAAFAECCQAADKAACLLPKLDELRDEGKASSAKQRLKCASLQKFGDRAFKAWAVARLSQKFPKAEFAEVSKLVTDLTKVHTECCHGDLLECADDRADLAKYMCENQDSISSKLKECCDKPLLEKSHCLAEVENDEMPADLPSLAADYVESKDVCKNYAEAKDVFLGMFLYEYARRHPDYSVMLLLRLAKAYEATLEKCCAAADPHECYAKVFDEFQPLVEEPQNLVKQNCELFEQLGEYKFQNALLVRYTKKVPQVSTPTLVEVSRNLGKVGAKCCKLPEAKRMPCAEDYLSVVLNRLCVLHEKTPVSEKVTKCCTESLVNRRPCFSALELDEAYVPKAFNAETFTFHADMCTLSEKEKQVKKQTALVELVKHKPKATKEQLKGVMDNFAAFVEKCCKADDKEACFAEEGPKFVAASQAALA

mouse serum albumin [6] = molecular target: T4, mouse serum albumin; remark: listed apart in the source
human TNFα [7] = molecular target: T2, human TNFα
human TNFα [8] = molecular target: T2, human TNFα; assay: competition ELISA, biotinylated TNFα (10 ng/ml) pre-incubated with nanobody, binding to coated Enbrel; 50% inhibition
human TNFα [9] = molecular target: T2, human TNFα; assay: ELISA, biotinylated TNFα on neutravidin, anti-myc detection; 50% binding
human TNFα [10] = molecular target: T2, human TNFα; remark: listed apart in the source
rhesus TNFα [11] = molecular target: T1, rhesus TNFα; assay: cell-based or functional assay; remark: listed apart in the source
human TNFα [12] = molecular target: T2, human TNFα; assay: cell-based or functional assay; remark: listed apart in the source
human TNFα [13] = molecular target: T2, human TNFα; assay: cell-based or functional assay; remark: listed apart in the source
human TNFα [14] = molecular target: T2, human TNFα; remark: listed apart in the source
human TNFα [15] = molecular target: T2, human TNFα; remark: listed apart in the source
human TNFα [16] = molecular target: T2, human TNFα; assay: cell-based or functional assay; remark: listed apart in the source

T2 sequence (P01375 77-233 limits assumed): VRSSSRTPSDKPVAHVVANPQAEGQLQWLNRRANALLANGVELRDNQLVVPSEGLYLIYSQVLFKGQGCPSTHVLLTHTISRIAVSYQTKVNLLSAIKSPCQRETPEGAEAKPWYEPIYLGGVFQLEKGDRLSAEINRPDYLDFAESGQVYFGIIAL
T1 sequence (P48094 77-233 limits assumed): as the sequence (P01375 77-233 limits assumed) above, with R44T, T72N, R138L counted along it

B1: TNF2-GS30-TNF2 (TNF8) (VHH)
chain: QVQLVESGGGLVQAGGSLRLSCAASGRTFSEPSGYTYTIGWFRQAPGKEREFVARIYWSSGLTYYADSVKGRFTISRDIAKNTVDLLMNSLKPEDTAVYYCAARDGIPTSRSVGSYNYWGQGTQVTVSSGGGGSGGGGSGGGGSGGGGSGGGGSGGGGSQVQLVESGGGLVQAGGSLRLSCAASGRTFSEPSGYTYTIGWFRQAPGKEREFVARIYWSSGLTYYADSVKGRFTISRDIAKNTVDLLMNSLKPEDTAVYYCAARDGIPTSRSVGSYNYWGQGTQVTVSS
notes: Bivalent nanobody, 30 AA GlySer linker
For B1, which “EC50 in nM (mean); L929s + Act D cytotoxicity assay, rhesus TNFa @ 0.5 ng/ml” value (rhesus TNFα [1]) is on record?
The value was 1.03 nM.

What about the “EC50 in nM (mean); L929s + Act D cytotoxicity assay, human TNFa @ 0.5 ng/ml” value (human TNFα [2]) of the same binder?
Its value is 0.007 nM.

And the IC50 (human TNFα [3])?
The IC50 was 0.023 µg/mL.

What about the “EC50 in nM; alphaKYM cell assay (10000 c/w), human TNFa @ 1 ng/ml” value (human TNFα [4]) of the same binder?
Its value is 0.013 nM.

B2: PMP6A8 (ALB2) (VHH)
VHH: AVQLVESGGGLVQGGGSLRLACAASERIFDLNLMGWYRQGPGNERELVATCITVGDSTNYADSVKGRFTISMDYTKQTVYLHMNSLRPEDTGLYYCKIRRTWHSELWGQGTQVTVSS
notes: Class C serum albumin nanobody; not shown: C-terminal c-myc tag and (His)6 tag coded by vector pAX051
Does B2 bind (Protein A)?
Result: no binding (tested: 10 uM)

What about the Kd (human serum albumin) of the same binder?
The Kd was 0.092 nM.

And the koff (human serum albumin)?
The koff was 7.52e-05 s⁻¹.

And the kon (human serum albumin)?
Its kon is 815000 M⁻¹ s⁻¹.

And the Kd (mouse serum albumin [5])?
Its Kd is 15.7 nM.

And the koff (mouse serum albumin [5])?
The koff was 0.00307 s⁻¹.

And the kon (mouse serum albumin [5])?
Its kon is 195000 M⁻¹ s⁻¹.

What about the Kd (rhesus serum albumin) of the same binder?
The Kd was 0.036 nM.

What about the koff (rhesus serum albumin) of the same binder?
Its koff is 7.12e-05 s⁻¹.

And the kon (rhesus serum albumin)?
The kon was 1.94e+06 M⁻¹ s⁻¹.

What about the “difference in affinity for human/rhesus versus mouse serum albumin” value (mouse serum albumin [6]) of the same binder?
The value was 400 fold.

B3: PMP1G5 (TNF2) (VHH)
VHH: QVQLVESGGGLVQAGGSLRLSCAASGRTFSEPSGYTYTIGWFRQAPGKEREFVARIYWSSGLTYYADSVKGRFTISRDIAKNTVDLLMNSLKPEDTAVYYCAARDGIPTSRSVGSYNYWGQGTQVTVSS
notes: also called WT TNF2; not shown: C-terminal c-myc tag and (His)6 tag coded by vector pAX051
Which results are given for B3?
koff (human TNFα [7]): 0.00085 s⁻¹; IC50 (human TNFα [8]): 3.5 µg/mL; EC50 (human TNFα [9]): 0.02 µg/mL; koff (human TNFα [10]): 0.00083 s⁻¹; EC50 in nM; alphaKYM cell assay (10000 c/w), human TNFa @ 1 ng/ml (human TNFα [4]): 4.24 nM; EC50 in nM (mean); L929s + Act D cytotoxicity assay, rhesus TNFα @ 0.5 ng/ml (rhesus TNFα [11]): > 50 nM; EC50 in nM (mean); L929s + Act D cytotoxicity assay, human TNFα @ 0.5 ng/ml (human TNFα [12]): 1.41 nM; EC50 in nM (mean); L929s + Act D cytotoxicity assay, human TNFa @ 0.5 ng/ml (human TNFα [13]): 1.41 nM; koff (human TNFα [14]): 0.00133 s⁻¹; koff (human TNFα [15]): 0.000359 s⁻¹; EC50 in nM (mean); L929s + Act D cytotoxicity assay, human TNFa @ 0.5 ng/ml (human TNFα [16]): 1.41 nM

From patent US20200079844A1 (Ablynx, published 2020)
